Measurements reported in patent publication US20220204611A1 (Amgen, published 2022).

Experiments:
human TREM2 [1] = molecular target: T1, human TREM2 (human, UniProt Q9NZC2 19-174, limits assumed); assay: yeast-displayed Fab FACS, 2nd screen 2 nM
T1 sequence: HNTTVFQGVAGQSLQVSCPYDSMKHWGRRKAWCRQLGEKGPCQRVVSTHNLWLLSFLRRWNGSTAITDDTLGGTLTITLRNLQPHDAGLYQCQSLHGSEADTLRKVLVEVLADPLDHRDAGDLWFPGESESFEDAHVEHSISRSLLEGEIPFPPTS

human TREM2 [2] = molecular target: T1, human TREM2; assay: yeast-displayed Fab FACS, 1st screen 10 nM
human TREM2 [3] = molecular target: T1, human TREM2; assay: yeast-displayed Fab FACS, 2nd screen 10 nM

Binder	binding signal fold over 6E7 parental (human TREM2 [1])	binding signal fold over 6E7 parental (human TREM2 [2])	binding signal fold over 6E7 parental (human TREM2 [3])
V25 (Fab, V domains shown) VH: EVQLVQSGAEVKKPGESLKISCKGSGYSFGSYWIAWVRQMPGKGLEWMGLIYPGDSDTRYSPSFQGQVTISADKSISTAYLQWSSLKASDTAMYFCARSRTFYYDSSDYFDYWGQGTLVTVSS VL: DIQMTQSPSSVSASVGDRVTITCRASQGISSWLAWYQQKPGKAPKLLIYAASSLANGVPSRFSGSGSGTDFTLTISSLQPEDFATYFCQQADSMPRTFGQGTKLEIK	3.15 fold	4.23 fold	4.7 fold
V48 (Fab, V domains shown) VH: EVQLVQSGAEVKKPGESLKISCKGSGYSFGSYWIAWVRQMPGKGLEWMGIIYPGDSDVRYSPSFQGQVTISADKSISTAYLQWSSLKASDTAMYFCARMRTFYYDSSDYFDYWGQGTLVTVSS VL: DIQMTQSPSSVSASVGDRVTITCRASQGISSWLAWYQQKPGKAPKLLIYAASSLQTGVPSRFSGSGSGTDFTLTISSLQPEDFATYFCQQADSLPRTFGQGTKLEIK	2.3 fold	2.42 fold	2.54 fold
V37 (Fab, V domains shown) VH: EVQLVQSGAEVKKPGESLKISCKGSGYSHTSYWIAWVRQMPGKGLEWMGIIYPGDSDTRYSPSFAGQVTISADKSISTAYLQWSSLKASDTAMYFCARSRTFYYDSSDYFDYWGQGTLVTVSS VL: DIQMTQSPSSVSASVGDRVTITCRASQGISSWLAWYQQKPGKAPKLLIYAASSLQWGVPSRFSGSGSGTDFTLTISSLQPEDFATYFCQQADSYPRTFGQGTKLEIK	3.69 fold	3.46 fold	3.49 fold
V40 (Fab, V domains shown) VH: EVQLVQSGAEVKKPGESLKISCKGSGYSFGSYWIAWVRQMPGKGLEWMGIIYPGDSDVRYSPSFQGQVTISADKSISTAYLQWSSLKASDTAMYFCARQRTFYYDSSDYSDYWGQGTLVTVSS VL: DIQMTQSPSSVSASVGDRVTITCRASQGISSWLAWYQQKPGKAPKLLIYAASSLQLGVPSRFSGSGSGTDFTLTISSLQPEDFATYFCQQADRFPRTFGQGTKLEIK	3.41 fold	4.48 fold	4.16 fold
V36 (Fab, V domains shown) VH: EVQLVQSGAEVKKPGESLKISCKGSGYSFTSYWLAWVRQMPGKGLEWMGIIYPGDSDTRYSPSFQGQVTISADKSISTAYLQWSSLKASDTAMYFCARSRTFYYDSSDYFDYWGQGTLVTVSS VL: DIQMTQSPSSVSASVGDRVTITCRASQGISSWLAWYQQKPGKAPKLLIYAASSRQNGVPSRFSGSGSGTDFTLTISSLQPEDFATYFCQQADSYPRTFGQGTKLEIK	4 fold	3.38 fold	3.44 fold
V51 (Fab, V domains shown) VH: EVQLVQSGAEVKKPGESLKISCKGSGYSFTSYWIAWVRQMPGKGLEWMGIIYPGDSDVRYSPSFQGQVTISADKSISTAYLQWSSLKASDTAMYFCARGRTFYYDSSDYFDNWGQGTLVTVSS VL: DIQMTQSPSSVSASVGDRVTITCRASQGISSWLAWYQQKPGKAPKLLIYAASSRQNGVPSRFSGSGSGTDFTLTISSLQPEDFATYFCQQADSFPRTFGQGTKLEIK	1.83 fold	2.81 fold	3.18 fold
V29 (Fab, V domains shown) VH: EVQLVQSGAEVKKPGESLKISCKGSGYSFKSYWIAWVRQMPGKGLEWMGIIYPGDSDTRYSPSFQGQVTISADKSISTAYLQWSSLKASDTAMYFCARQRTFYYDSSDYFDYWGQGTLVTVSS VL: DIQMTQSPSSVSASVGDRVTITCRASQGISSWLAWYQQKPGKAPKLLIYAASSLQNGVPSRFSGSGSGTDFTLTISSLQPEDFATYFCQQADSFPRTFGQGTKLEIK	0.84 fold	1.53 fold	1.67 fold
V53 (Fab, V domains shown) VH: EVQLVQSGAEVKKPGESLKISCKGSGYSFTSYWIAWVRQMPGKGLEWMGIIYPGDSDTRYSPHFQGQVTISADKSISTAYLQWSSLKASDTAMYFCARQRTFYYDSSDYFDYWGQGTLVTVSS VL: DIQMTQSPSSVSASVGDRVTITCRASQGISSWLAWYQQKPGKAPKLLIYAASSLQNGVPSRFSGSGSGTDFTLTISSLQPEDFATYFCQQADSFPRTFGQGTKLEIK	0.66 fold	1.25 fold	1.17 fold
V52 (Fab, V domains shown) VH: EVQLVQSGAEVKKPGESLKISCKGSGYSFESYWIAWVRQMPGKGLEWMGIIYPGDSDTRYSPSFQGQVTISADKSISTAYLQWSSLKASDTAMYFCARGRTFYYDSSDYFDYWGQGTLVTVSS VL: DIQMTQSPSSVSASVGDRVTITCRASQGISSWLAWYQQKPGKAPKLLIYAASSLQRGVPSRFSGSGSGTDFTLTISSLQPEDFATYFCQQADRFPRTFGQGTKLEIK	1.78 fold	3 fold	3.09 fold
V49 (Fab, V domains shown) VH: EVQLVQSGAEVKKPGESLKISCKGSGYSFNSYWIAWVRQMPGKGLEWMGTIYPGDSDTRLSPSFQGQVTISADKSISTAYLQWSSLKASDTAMYFCARSRTFYYDSSDYFDYWGQGTLVTVSS VL: DIQMTQSPSSVSASVGDRVTITCRASQGISSWLAWYQQKPGKAPKLLIYAASSRQNGVPSRFSGSGSGTDFTLTISSLQPEDFATYFCQQADSYPRTFGQGTKLEIK	5.02 fold	6.51 fold	6.58 fold
V27 (Fab, V domains shown) VH: EVQLVQSGAEVKKPGESLKISCKGSGYSFTSYWIAWVRQMPGKGLEWMGIIYPGDSDTRYAPSFQGQVTISADKSISTAYLQWSSLKASDTAMYFCVRSRTFYYDSSDYFDYWGQGTLVTVSS VL: DIQMTQSPSSVSASVGDRVTITCRASQGISSWLAWYQQKPGKAPKLLIYAASSLQRGVPSRFSGSGSGTDFTLTISSLQPEDFATYFCQQADSFPRTFGQGTKLEIK	5.67 fold	5.5 fold	5.69 fold
V61 (Fab, V domains shown) VH: EVQLVQSGAEVKKPGESLKISCKGSGYSFSSYWIAWVRQMPGKGLEWMGIIYPGDSDTRYNPSFQGQVTISADKSISTAYLQWSSLKASDTAMYFCARGRTFYYDSSDYFDYWGQGTLVTVSS VL: DIQMTQSPSSVSASVGDRVTITCRASQGISSWLAWYQQKPGKAPKLLIYAASSLVNGVPSRFSGSGSGTDFTLTISSLQPEDFATYFCQQADSLPRTFGQGTKLEIK	3.63 fold	5.08 fold	5.22 fold
V62 (Fab, V domains shown) VH: EVQLVQSGAEVKKPGESLKISCKGSGYSFGSYWIAWVRQMPGKGLEWMGIIYPGDSDTRYAPSFQGQVTISADKSISTAYLQWSSLKASDTAMYFCARQRTFYYDSSGYFDYWGQGTLVTVSS VL: DIQMTQSPSSVSASVGDRVTITCRASQGISSWLAWYQQKPGKAPKLLIYAASSLQRGVPSRFSGSGSGTDFTLTISSLQPEDFATYFCGQADSFPRTFGQGTKLEIK	1.87 fold	2.49 fold	2.89 fold
V41 (Fab, V domains shown) VH: EVQLVQSGAEVKKPGESLKISCKGSGYSFTSYWIAWVRQMPGKGLEWMGTIYPGDSDTRYSPSFQGQVTISADKSISTAYLQWSSLKASDTAMYFCARQRTFYYDSSDYFDYWGQGTLVTVSS VL: DIQMTQSPSSVSASVGDRVTITCRASQGISSWLAWYQQKPGKAPKLLIYAASSLQNGVPSRFSGSGSGTDFTLTISSLQPEDFATYFCQQADSFPRTFGQGTKLEIK	0.58 fold	1.74 fold	1.72 fold
V60 (Fab, V domains shown) VH: EVQLVQSGAEVKKPGESLKISCKGSGYHFTSYWIAWVRQMPGKGLEWMGIIYPGDSDVRYSPSFQGQVTISADKSISTAYLQWSSLKASDTAMYFCARQRTFYYDSSDYSDYWGQGTLVTVSS VL: DIQMTQSPSSVSASVGDRVTITCRASQGISSWLAWYQQKPGKAPKLLIYAASSLQRGVPSRFSGSGSGTDFTLTISSLQPEDFATYFCGQADSFPRTFGQGTKLEIK	3.35 fold	3.26 fold	3.63 fold
V63 (Fab, V domains shown) VH: EVQLVQSGAEVKKPGESLKISCKGSGYSFRSYWIAWVRQMPGKGLEWMGIIYPGDSDTRYSPSFQGQVTISADKSISTAYLQWSSLKASDTAMYFCARSRTFYYDSSDYFDYWGQGTLVTVSS VL: DIQMTQSPSSVSASVGDRVTITCRASQGISSWLAWYQQKPGKAPKLLIYAASSLQRGVPSRFSGSGSGTDFTLTISSLQPEDFATYFCQQADRFPRTFGQGTKLEIK	4.91 fold	3.76 fold	3.71 fold
V26 (Fab, V domains shown) VH: EVQLVQSGAEVKKPGESLKISCKGSGYSFTSYWIGWVRQMPGKGLEWMGTIYPGDSDTRYSPSFQGQVTISADKSISTAYLQWSSLKASDTAMYFCARQRTMYYDSSDYFDAWGQGTLVTVSS VL: DIQMTQSPSSVSASVGDRVTITCRASQGISSWLAWYQQKPGKAPKLLIYAASSLQRGVPSRFSGSGSGTDFTLTISSLQPEDFATYFCQQADSYPRTFGQGTKLEIK	2.83 fold	3.57 fold	3.47 fold
